Common to all, as to assay: FP
One assay has as its target T1, GST-tagged GluK1 ATD (rat).
T1 chain: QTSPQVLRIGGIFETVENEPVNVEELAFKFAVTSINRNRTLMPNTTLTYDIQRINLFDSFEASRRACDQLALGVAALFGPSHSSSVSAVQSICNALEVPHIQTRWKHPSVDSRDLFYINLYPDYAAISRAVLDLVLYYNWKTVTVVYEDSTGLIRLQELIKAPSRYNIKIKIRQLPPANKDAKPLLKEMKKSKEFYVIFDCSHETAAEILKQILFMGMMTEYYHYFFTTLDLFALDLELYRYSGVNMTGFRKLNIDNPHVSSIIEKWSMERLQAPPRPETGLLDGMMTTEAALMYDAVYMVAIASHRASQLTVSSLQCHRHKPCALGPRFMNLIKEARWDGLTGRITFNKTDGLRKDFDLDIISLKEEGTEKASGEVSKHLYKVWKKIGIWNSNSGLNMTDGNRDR

For the next assay, the target named is T2, GST-tagged GluK2 ATD (rat).
T2 chain: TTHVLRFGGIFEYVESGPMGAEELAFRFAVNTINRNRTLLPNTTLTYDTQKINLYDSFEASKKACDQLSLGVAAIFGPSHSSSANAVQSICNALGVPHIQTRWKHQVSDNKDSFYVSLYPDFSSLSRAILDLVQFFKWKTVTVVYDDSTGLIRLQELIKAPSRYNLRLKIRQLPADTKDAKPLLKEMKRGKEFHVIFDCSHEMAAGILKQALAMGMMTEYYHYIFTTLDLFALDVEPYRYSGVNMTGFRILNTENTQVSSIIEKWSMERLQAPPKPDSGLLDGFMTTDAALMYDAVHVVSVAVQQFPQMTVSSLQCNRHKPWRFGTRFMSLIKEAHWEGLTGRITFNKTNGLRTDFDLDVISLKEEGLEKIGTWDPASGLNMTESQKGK

In assay [1] the target is T3, GST-tagged GluK1 N72-137 region (rat, UniProt P22756 72-137).
T3 chain: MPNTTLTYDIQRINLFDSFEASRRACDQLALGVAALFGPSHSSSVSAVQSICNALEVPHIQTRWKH

Assay [2] concerns the target T4, GST-tagged GluK2 region corresponding to GluK1 N72-137 (rat, UniProt P42260 71-136).
T4 chain: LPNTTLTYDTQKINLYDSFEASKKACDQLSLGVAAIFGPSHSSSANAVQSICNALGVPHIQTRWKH

For one molecule, Kd results are on record in PMC6242971 (2018).

Where no end group is shown, it is not given here. The star is where a group is joined. FITC = O=C1OC2(c3ccc(O)cc3Oc3cc(O)ccc32)c2ccc(NC(=S)*)cc21

As for {FITC}-MERSTVLIQPGLWTRDTSWTLLYFLCYILP [FITC-labelled GluK1 signal peptide], the Kd with GST-tagged GluK1 ATD amounted to 13.7 µM; in the assay with GST-tagged GluK2 ATD, 35.7 µM; in assay [1] it was 14.1 µM; in assay [2] it was 36.3 µM.

A word on the Kd: it is the free concentration of one partner at which half of the binding sites on the other are occupied at equilibrium, for simple one-to-one binding.
